“Also recorded” adds a separate entry of the source.
B1: N93A (protein)
chain: KAPKTQPYNPCKPQEVIDTKCMGPKDCLYPNPDSCTTYIQCVPLDEVGNAKPVVKPCPKGLQWADNVGKKWCDYPNLSTCPVKTPQ
modifications: left off: 6x His (two), N-terminal, state not stated
B2: D94A (protein)
chain: KAPKTQPYNPCKPQEVIDTKCMGPKDCLYPNPDSCTTYIQCVPLDEVGNAKPVVKPCPKGLQWNANVGKKWCDYPNLSTCPVKTPQ
modifications: left off: 6x His (two), N-terminal, state not stated
B3: P87A (protein)
chain: KAPKTQPYNPCKPQEVIDTKCMGPKDCLYPNPDSCTTYIQCVPLDEVGNAKPVVKPCAKGLQWNDNVGKKWCDYPNLSTCPVKTPQ
modifications: left off: 6x His (two), N-terminal, state not stated
B4: Y103F (protein)
chain: KAPKTQPYNPCKPQEVIDTKCMGPKDCLYPNPDSCTTYIQCVPLDEVGNAKPVVKPCPKGLQWNDNVGKKWCDFPNLSTCPVKTPQ
modifications: left off: 6x His (two), N-terminal, state not stated
B5: N95A (protein)
chain: KAPKTQPYNPCKPQEVIDTKCMGPKDCLYPNPDSCTTYIQCVPLDEVGNAKPVVKPCPKGLQWNDAVGKKWCDYPNLSTCPVKTPQ
modifications: left off: 6x His (two), N-terminal, state not stated
B6: P53A (protein)
chain: KAPKTQPYNPCKPQEVIDTKCMGAKDCLYPNPDSCTTYIQCVPLDEVGNAKPVVKPCPKGLQWNDNVGKKWCDYPNLSTCPVKTPQ
modifications: left off: 6x His (two), N-terminal, state not stated
B7: Y67F (protein)
chain: KAPKTQPYNPCKPQEVIDTKCMGPKDCLYPNPDSCTTFIQCVPLDEVGNAKPVVKPCPKGLQWNDNVGKKWCDYPNLSTCPVKTPQ
modifications: left off: 6x His (two), N-terminal, state not stated
B8: M51A (protein)
chain: KAPKTQPYNPCKPQEVIDTKCAGPKDCLYPNPDSCTTYIQCVPLDEVGNAKPVVKPCPKGLQWNDNVGKKWCDYPNLSTCPVKTPQ
modifications: left off: 6x His (two), N-terminal, state not stated

Legend:
subtilisin = assay: Subtilisin treatment (resistance against proteolytic degradation); type: in vitro ADME; set-up: key to Stability (Subtilisin assay): S: stable; PU: partially unstable; details: for Stability (Subtilisin assay): 500 ng/μL subtilisin, 30 min, room temperature; for susceptibility to proteolytic degradation by subtilisin: 500 ng/μl subtilisin, band of mature CfAvr4 on SDS-PAGE
Description: The WT-CfAvr4 and selected mutants thereof were exposed to the non-specific protease subtilisin in order to determine their resistance against proteolytic degradation. Treatments with subtilisin were made as previously described with minor modifications. Briefly, 40 μM of the E. coli-produced CfAvr4 and the selected CfAvr4 mutants were mixed with 10 mM of calcium chloride and 500 ng/μL of subtilisin (Sigma-Aldrich) in a total volume of 15 μL. Samples were incubated for 30 min at room temperature, after which period they were denatured by mixing with 10 mM PMSF and SDS-PAGE loading buffer, and heating at 98°C for 10 min. Digestion products were visualized on an SDS-PAGE after staining with Coomassie blue.

Cf-4 = assay: Agrobacterium tumefaciens transient transformation assay (ATTA): co-expression with Cf-4 in Nicotiana benthamiana leaves; type: in vivo; details: N. benthamiana, three cell density ratios 0.5:1, 1:1, 2:1
Description: The Agrobacterium tumefaciens transient transformation assay (ATTA) was used for the transient co-expression into leaves of Nicotiana benthamiana of Cf-4 with the WT-CfAvr4 and the mutants thereof tested in this study. Briefly, N. benthamiana plants were grown in a growth chamber with 16 h of artificial light and 70% humidity, at 25°C for 4 weeks. The true mature form of the WT-CfAvr4 (i.e. between Lys30-Gln115) and of the mutants thereof were singly cloned into the binary expression vector pICH47742 downstream of the PR1A signal sequence of Nicotiana tabacum for targeted secretion into the apoplast, and under the control of CaMV 35S promoter and NOS terminator. The tomato Cf-4 was cloned into pMOG800 as descripted before. Binary vector plasmids were transformed into A. tumefaciens strain GV3101 by electroporation. For the ATTA assay, agrobacteria transformed with pMOG800:Cf-4 was grown in 10mL LB-mannitol medium (LB medium with 10 g/L mannitol) amended with 50 μg/mL kanamycin and 25 μg/mL rifampicin, whereas agrobacteria transformed with pICH47742:WT-CfAvr4 or pICH4774:CfAvr4-mutants were grown in LB-mannitol amended with 100 μg/mL carbenicillin and 25 μg/mL rifampicin. All cultures were incubated at 28°C for 2 days, after which period they were pelleted at 2800g for 15 min, re-suspended in MMAi medium (5 g/L Murashige and Skoog basal salts, 20 g/L sucrose, 10 mM MES, and […]) at an optical cell density (A600) of 2.0, and further incubated for 2–4 h at room temperature. Agroinfiltrations were performed by mixing agrobacteria containing pMOG800:Cf-4 with agrobacteria containing pICH47742_WT-CfAvr4 or pICH47742:CfAvr4-mutants at three different ratios of optical cell densities, i.e. A6000.5:A6001.0, A6000.5:A6000.5, and A6000.5:A6000.25 of. The mixture of agrobacteria was infiltrated into the leaves of N. benthamiana plants using a 1 mL syringe and the induction of an HR in the infiltrated leaf sectors was evaluated at 5 days post-infiltrations. Control infiltrations were made using only the pMOG800:Cf-4 transformed agrobacteria and the agrobacteria containing pICH47742:CfAvr4 or the mutants thereof without mixing the two cultures, at cell densities of A6000.25, A6000.5, and A6001.0.

[1] = Isothermal titration calorimetry (ITC) of CfAvr4 variants with chitin hexasaccharide; type: binding; details: ITC; for increase in the Kd relative to WT-CfAvr4: (GlcNAc)6; for effect of the mutation on binding to (GlcNAc)6: compared with WT-CfAvr4
Description: A stock solution of the monomer of N-acetylglucosamine was prepared by dissolving the dry powder in a buffer containing 10 mM Bis-Tris, pH 6.5, 100 mM NaCl to a concentration of 0.100 g/L using analytic techniques. Standard solution of 0, 0.010, 0.025, 0.050, 0.075 g/L were prepared by serial dilutions. Using glass test tubes and pipets, 100 μL of each standard was mixed with 300μL of concentrated sulfuric acid and vortexed for 10 sec to mix. Solutions were incubated at RT for 10 min and then placed on ice to stop the reaction. […] Analytically prepared solution of the di- and tri-saccharide scaled linearly to the calibration curve. To determine the concentration of the chitin hexasaccharide solutions used in ITC, the solutions were diluted into the dynamic range of the calibration curve (S12 Fig) and subjected to the above procedure.
All ITC experiments were performed on a TA Instruments low volume NanoITC with a 186uL reaction cell and a reference cell filled with degassed Milli-Q grade water. Reactions were run in a buffer containing 10mM Bis-Tris, pH 6.5, 100 mM NaCl. The reservoir solution was filled with protein solution and continuously stirred while Chitin hexasaccharide solutions titrated in 2.5μL aliquots for 19 injections, with an initial 1μL injection, for a total injection volume of 48.5μL. The carbohydrate solutions were made by dissolving the dry powder in buffer to a concentration of 20mM (confirmed using methods described above) and then diluted to the working concentration using the final buffer exchange flow through to match the buffers as closely as possible. The integrated heats, after correction for the heat of dilution were analyzed using the NanoAnalyze software from […]. An individual binding site model was used to fit the binding isotherm. All experiments were replicated a minimum of three times.

Cf-4 immune receptor = assay: Pure protein infiltrations into tomato leaves of cv Purdue 135 (+ Cf-4), hypersensitive response; type: in vivo; details: both 5 μg/ml and 10 μg/ml, 5 dpi
Text: Tomato seeds were obtained from the Tomato Genetic Resource Center (TGRC) at UC Davis. WT-CfAvr4 and mutants thereof with single point mutations at selected amino acids were produced and purified from E. coli Rosetta-gami B cells as description above. […]

Molecule	Stability (Subtilisin assay) (subtilisin)	susceptibility to proteolytic degradation by subtilisin (subtilisin)	HR on transient co-expression with Cf-4 (Cf-4)	increase in the Kd relative to WT-CfAvr4 [1]	Cf-4-mediated HR after protein infiltration (Cf-4 immune receptor)	effect of the mutation on binding to (GlcNAc)6 [1]
B1	PU	more susceptible to degradation; also recorded: almost complete disappearance of the band	strong and similar in intensity HR	six	failed to elicit an HR; also recorded: do not; also recorded: did not elicit an HR	–
B2	PU	more susceptible to degradation; also recorded: almost complete disappearance of the band	strong and similar in intensity HR	five	failed to elicit an HR; also recorded: do not; also recorded: did not elicit an HR	–
B3	–	–	strong and similar in intensity HR	–	strong and equal in intensity HR; also recorded: strong and equally in intensity necrosis	did not affect the Kd substantially; also recorded: does not have an effect on the binding thermodynamics
B4	–	–	strong and similar in intensity HR	–	strong and equal in intensity HR; also recorded: strong and equally in intensity necrosis	did not affect the Kd substantially
B5	–	–	strong and similar in intensity HR	three	strong and equal in intensity HR; also recorded: strong and equally in intensity necrosis	–
B6	–	–	strong and similar in intensity HR	–	strong and equal in intensity HR; also recorded: strong and equally in intensity necrosis	did not affect the Kd substantially
B7	–	–	strong and similar in intensity HR	–	strong and equal in intensity HR; also recorded: strong and equally in intensity necrosis	did not affect the Kd substantially
B8	–	–	strong and similar in intensity HR	–	strong and equal in intensity HR; also recorded: strong and equally in intensity necrosis	did not affect the Kd substantially

From paper PMC6128652, “Structure of the Cladosporium fulvum Avr4 effector in complex with (GlcNAc)6 reveals the ligand-binding mechanism and uncouples its intrinsic function from recognition by the Cf-4 resistance protein” (PLoS Pathogens, 2018)
